{
  "source": "paper PMC5538822",
  "about": "“RNA-dependent stabilization of SUV39H1 at constitutive heterochromatin”",
  "molecules": {"B1": {"name": "dsRNA MBP 1-50 (dsRNA)", "RNA 1": "ACCAAAAUCGAAGAAGGUAAACUGGUAAUCUGGAUUAACGGCGAUAAAGG", "RNA 2": "CCUUUAUCGCCGUUAAUCCAGAUUACCAGUUUACCUUCUUCGAUUUUGGU"}, "B2": {"name": "dsDNA MBP 1-50 (dsDNA)", "DNA 1": "ACCAAAATCGAAGAAGGTAAACTGGTAATCTGGATTAACGGCGATAAAGG", "DNA 2": "CCTTTATCGCCGTTAATCCAGATTACCAGTTTACCTTCTTCGATTTTGGT"}},
  "key": {"[1]": {"molecular_target": "T1, MBP-SUV39H1 1-106 (NTE + chromodomain) (Homo sapiens) (UniProt O43463)", "T1 sequence": "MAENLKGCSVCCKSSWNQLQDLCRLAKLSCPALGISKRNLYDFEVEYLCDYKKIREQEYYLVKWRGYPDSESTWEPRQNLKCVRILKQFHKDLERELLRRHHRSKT", "assay": "EMSA", "details": "20 mM Tris-HCl pH 7.4, 50 mM NaCl, 10% glycerol, ~4 U RNase inhibitor, room temperature 10 min; native gel 0.5X TBE at 25 C; filter binding on nitrocellulose …"}, "[2]": {"molecular_target": "T2, MBP-SUV39H1 1-106 (NTE + chromodomain) (Homo sapiens, UniProt O43463 1-106)", "T2 sequence": "T1 sequence", "assay": "EMSA; 20 mM Tris-HCl pH 7.4, 50 mM NaCl, 10% glycerol, ~4 U RNase inhibitor, room temperature 10 min; native gel 0.5X TBE at 25 C; filter binding on nitrocellulose in the same buffer", "details": "protein: recombinant, tags: MBP, label: 32P"}, "[3]": {"molecular_target": "T3, MBP-SUV39H1 1-41 (N-terminal extension) (Homo sapiens, UniProt O43463 1-41)", "T3 chain": "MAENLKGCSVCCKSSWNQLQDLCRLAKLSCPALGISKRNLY", "assay": "EMSA; 20 mM Tris-HCl pH 7.4, 50 mM NaCl, 10% glycerol, ~4 U RNase inhibitor, room temperature 10 min; native gel 0.5X TBE at 25 C; filter binding on nitrocellulose in the same buffer", "details": "protein: recombinant; tags: MBP; label: 32P"}, "[4]": {"molecular_target": "T4, MBP-SUV39H1 107-412 (pre-SET, SET, post-SET) (Homo sapiens, UniProt O43463 107-412)", "T4 sequence": "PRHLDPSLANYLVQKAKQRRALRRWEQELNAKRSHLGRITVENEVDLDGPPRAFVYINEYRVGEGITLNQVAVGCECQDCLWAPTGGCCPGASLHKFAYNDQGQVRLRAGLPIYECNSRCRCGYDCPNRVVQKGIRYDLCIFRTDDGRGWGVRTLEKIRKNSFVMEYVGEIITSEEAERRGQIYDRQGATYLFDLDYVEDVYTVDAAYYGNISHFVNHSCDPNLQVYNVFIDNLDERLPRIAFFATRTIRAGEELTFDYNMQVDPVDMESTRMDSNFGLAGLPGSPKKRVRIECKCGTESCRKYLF", "assay": "EMSA; 20 mM Tris-HCl pH 7.4, 50 mM NaCl, 10% glycerol, ~4 U RNase inhibitor, room temperature 10 min; native gel 0.5X TBE at 25 C; filter binding on nitrocellulose in the same buffer", "details": "protein: recombinant; tags: MBP; label: 32P"}, "[5]": {"molecular_target": "T5, MBP-SUV39H1 42-106 (chromodomain) (Homo sapiens, UniProt O43463 42-106)", "T5 sequence": "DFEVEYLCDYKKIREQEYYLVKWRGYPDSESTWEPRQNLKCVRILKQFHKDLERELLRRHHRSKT", "assay": "EMSA; 20 mM Tris-HCl pH 7.4, 50 mM NaCl, 10% glycerol, ~4 U RNase inhibitor, room temperature 10 min; native gel 0.5X TBE at 25 C; filter binding on nitrocellulose in the same buffer", "details": "protein: recombinant; tags: MBP; label: 32P"}},
  "data": [
    {"molecule": "beta-actin ssRNA (180mer)", "values": [
      {"measurement": "Kd", "setting": "[1]", "value": 32, "unit": "nM"}
    ]},
    {"molecule": "alpha-satellite ssRNA (180mer)", "values": [
      {"measurement": "Kd", "setting": "[1]", "value": 23, "unit": "nM"}
    ]},
    {"molecule": "AUAUGGGAACCACUGAUCC (ssRNA)", "note": "[sense 19mer ssRNA]", "values": [
      {"measurement": "Kd", "setting": "[2]", "value": "145 ± 9", "unit": "nM"},
      {"measurement": "Kd", "setting": "[3]", "value": "51000 ± 30000", "unit": "nM"},
      {"measurement": "binding result", "setting": "[4]", "value": "no binding"},
      {"measurement": "Kd", "setting": "[5]", "value": "2310 ± 170", "unit": "nM"}
    ]},
    {"molecule": "ACCAAAATCGAAGAAGGTAAACTGGTAATCTGGATTAACGGCGATAAAGG (ssDNA)", "note": "[ssDNA, sense MBP 1-50]", "values": [
      {"measurement": "binding result", "setting": "[2]", "value": "binds"}
    ]},
    {"molecule": "B1", "values": [
      {"measurement": "binding result", "setting": "[2]; blunt", "value": "binds"}
    ]},
    {"molecule": "GGGAUCAGUGGUUCCCAUA (ssRNA)", "note": "[antisense 19mer ssRNA]", "values": [
      {"measurement": "Kd", "setting": "[2]", "value": "366 ± 22", "unit": "nM"}
    ]},
    {"molecule": "ACCAAAAUCGAAGAAGGUAAACUGGUAAUCUGGAUUAACGGCGAUAAAGG (ssRNA)", "note": "[ssRNA1, sense MBP 1-50]", "values": [
      {"measurement": "Kd", "setting": "[2]", "value": "61 ± 5", "unit": "nM"}
    ]},
    {"molecule": "CCUUUAUCGCCGUUAAUCCAGAUUACCAGUUUACCUUCUUCGAUUUUGGU (ssRNA)", "note": "[ssRNA2, antisense MBP 1-50]", "values": [
      {"measurement": "Kd", "setting": "[2]", "value": "64 ± 3", "unit": "nM"}
    ]},
    {"molecule": "B2", "values": [
      {"measurement": "Kd", "setting": "[2]; blunt", "value": "185 ± 17", "unit": "nM"}
    ]}
  ]
}
